Experimental data reported in US20250361308A1 (NEUROGENE, published 2025).
Where two headings read alike, the source gives them in different places.

T1: Human IL-2 R beta/CD122 Protein, Fc Tag (ILB-H5253) (human, UniProt P14784 27-239)
T1 construct: Bought protein, captured on anti-human Fc sensors; also called huIL2Rβ; IL-2Rβ; not shown: Fc tag of the bought reagent
T1 sequence (looked up): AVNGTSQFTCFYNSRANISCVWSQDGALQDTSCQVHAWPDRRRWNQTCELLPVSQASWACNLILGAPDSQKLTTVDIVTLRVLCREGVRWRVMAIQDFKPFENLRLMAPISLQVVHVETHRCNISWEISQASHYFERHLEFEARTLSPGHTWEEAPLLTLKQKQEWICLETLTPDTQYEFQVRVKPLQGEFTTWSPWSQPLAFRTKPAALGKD

T2: huIL2Rβγ: Human IL-2 R gamma/CD132 Protein, Fc Tag (ILG-H5256) with Human IL-2 R beta/CD122 Protein, His Tag … (human, UniProt P31785 23-254; P14784 27-239)
T2 construct: IL-2Rγ-Fc sat on the sensor; IL-2Rβ-His was in solution at a concentration equimolar to or greater than the analyte; also called IL-2RBG; not shown: Fc tag of the bought reagent; His tag of the bought reagent
T2 sequence (looked up) 1: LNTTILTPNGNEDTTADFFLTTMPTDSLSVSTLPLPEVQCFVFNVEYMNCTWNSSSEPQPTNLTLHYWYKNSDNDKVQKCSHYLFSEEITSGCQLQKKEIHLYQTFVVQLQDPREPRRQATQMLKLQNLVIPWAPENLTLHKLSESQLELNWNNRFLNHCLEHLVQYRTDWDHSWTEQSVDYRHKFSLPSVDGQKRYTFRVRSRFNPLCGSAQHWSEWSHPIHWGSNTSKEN
T2 sequence (looked up) 2: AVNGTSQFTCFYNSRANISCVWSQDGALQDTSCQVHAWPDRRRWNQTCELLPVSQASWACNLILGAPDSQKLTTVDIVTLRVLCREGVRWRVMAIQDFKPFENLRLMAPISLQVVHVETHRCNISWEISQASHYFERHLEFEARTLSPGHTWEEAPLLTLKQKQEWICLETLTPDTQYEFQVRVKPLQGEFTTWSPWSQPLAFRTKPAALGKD

T3: human CD122 and CD132 expressed on a HEK293 cell line (human, UniProt P14784 27-551; P31785 23-369)
T3 construct: whole, on cells; also called IL-2RBG; IL-2Rβγ on cells
T3 sequence (looked up) 1: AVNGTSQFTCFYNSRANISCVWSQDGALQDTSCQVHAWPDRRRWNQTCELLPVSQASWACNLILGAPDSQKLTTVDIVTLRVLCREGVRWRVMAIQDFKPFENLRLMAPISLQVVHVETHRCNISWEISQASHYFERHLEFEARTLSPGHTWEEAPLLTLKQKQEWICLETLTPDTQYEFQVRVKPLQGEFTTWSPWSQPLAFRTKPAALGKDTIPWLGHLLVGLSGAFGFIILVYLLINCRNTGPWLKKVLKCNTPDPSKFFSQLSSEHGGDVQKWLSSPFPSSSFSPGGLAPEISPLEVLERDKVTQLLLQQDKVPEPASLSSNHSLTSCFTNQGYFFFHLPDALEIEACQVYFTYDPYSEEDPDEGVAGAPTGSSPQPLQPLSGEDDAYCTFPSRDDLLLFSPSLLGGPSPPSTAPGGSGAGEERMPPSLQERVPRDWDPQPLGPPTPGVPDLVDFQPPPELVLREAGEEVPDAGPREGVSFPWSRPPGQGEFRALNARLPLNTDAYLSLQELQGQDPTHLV
T3 sequence (looked up) 2: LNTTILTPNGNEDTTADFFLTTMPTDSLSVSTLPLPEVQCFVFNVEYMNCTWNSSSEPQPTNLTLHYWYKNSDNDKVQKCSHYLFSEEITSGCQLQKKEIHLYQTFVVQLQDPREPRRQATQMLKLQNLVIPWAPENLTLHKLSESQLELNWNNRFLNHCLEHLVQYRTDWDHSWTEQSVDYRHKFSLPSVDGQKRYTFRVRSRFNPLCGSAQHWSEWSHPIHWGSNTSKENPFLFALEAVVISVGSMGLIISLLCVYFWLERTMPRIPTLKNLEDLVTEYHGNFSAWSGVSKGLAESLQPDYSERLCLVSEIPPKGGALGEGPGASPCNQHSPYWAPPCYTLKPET


How the values were obtained:
[1] = molecular target: T1, Human IL-2 R beta/CD122 Protein, Fc Tag …; experiment: Octet BLI; IL-2Rβ-Fc on anti-human Fc sensors, Neo-2/15 variant as analyte, 1:1 steady-state model
Procedure: (§1) Binding data was collected in the Octet RED96 instrument and processed using the integrated Octet software. […] Anti-Human Fc Capture (AHC) sensors were equilibrated for 90s in 1× Cytiva HBS-EP+ Buffer 10 binding buffer. Sensors were loaded with receptor by mixing with wells containing 0.5 ug/ml aforementioned receptors until a threshold response reached 1.0 nm. Sensors were then baselined in binding buffer for 90s. After baseline measurement, the association kinetics (kon) were monitored by dipping the biosensors in wells containing analyte for 400s. […] Dissociation kinetics (koff) were monitored by dipping the biosensors in separate wells of binding buffer for 800s. The dissociation constant (Kd) was calculated using a 1:1 steady-state binding model with the Octet software.

[2] = molecular target: T2, huIL2Rβγ: Human IL-2 R gamma/CD132 …; experiment: Octet BLI; IL-2Rγ-Fc on anti-human Fc sensors with IL-2Rβ-His in solution, 1:1 steady-state model
Procedure: as §1

[3] = molecular target: T1, Human IL-2 R beta/CD122 Protein, Fc Tag …; experiment: Octet BLI; IL-2Rβ-Fc on anti-human Fc sensors, Neo-2/15 variant as analyte, 1:1 steady-state model; remark: listed apart in the source
Procedure: as §1

[4] = molecular target: T2, huIL2Rβγ: Human IL-2 R gamma/CD132 …; experiment: Octet BLI; IL-2Rγ-Fc on anti-human Fc sensors with IL-2Rβ-His in solution, 1:1 steady-state model; remark: listed apart in the source
Procedure: as §1

[5] = molecular target: T3, human CD122 and CD132 expressed on a …; experiment: flow cytometry saturation binding on HEK293 cells expressing human CD122 and CD132; apparent KD
Procedure: Saturation binding studies were done using a HEK293 cell line expressing human CD122 and CD132. […] Cells were incubated for 30 minutes on ice, then pelleted and washed twice with cold PBS. […] After a 30-minute incubation on ice, the cells were pelleted and washed twice in cold PBS. […] The apparent dissociation constant (KD) was calculated using GraphPad Prism (GraphPad, San Diego, CA).

Row | Binder | Kd [1] | Kd [2] | Kd [3] | Kd [4] | Kd [5]
1 | Neo-2/15_D15A (designed binder) PKKKIQLHAEHALYAALMILNIVKTNSPPAEEKLEDYAFNFELILEEIARLFESGDQKDEAEKAKRMKEWMKRIKTTASEDEQEEMANAIITILQSWIFS | 140 nM | 230 nM | – | – | –
2 | Neo-2/15_H11A (designed binder) PKKKIQLHAEAALYDALMILNIVKTNSPPAEEKLEDYAFNFELILEEIARLFESGDQKDEAEKAKRMKEWMKRIKTTASEDEQEEMANAIITILQSWIFS | – | – | 3.3 nM | 15 nM | –
3 | Neo-2/15_H8A (designed binder) PKKKIQLAAEHALYDALMILNIVKTNSPPAEEKLEDYAFNFELILEEIARLFESGDQKDEAEKAKRMKEWMKRIKTTASEDEQEEMANAIITILQSWIFS | – | – | 1.4 nM | 11 nM | –
4 | C terminal anti-CD25 full-length Ab fusion with Neo-2/15_D15S_Q95E (TRA comprising SEQ ID NO: 69 and 70) (other, also called distal fused TRA) heavy: QVQLVQSGAEVKKPGSSVKVSCKASGYTFTSYRMHWVRQAPGQGLEWIGYINPSTGYTEYNQKFKDKATITADESTNTAYMELSSLRSEDTAVYYCARGGGVFDYWGQGTLVTVSSASTKGPSVFPLAPSSKSTSGGTAALGCLVKDYFPEPVTVSWNSGALTSGVHTFPAVLQSSGLYSLSSVVTVPSSSLGTQTYICNVNHKPSNTKVDKKVEPKSCDKTHTCPPCPAPEAAGAPSVFLFPPKPKDTLMISRTPEVTCVVVDVSHEDPEVKFNWYVDGVEVHNAKTKPREEQYNSTYRVVSVLTVLHQDWLNGKEYKCKVSNKALPAPIEKTISKAKGQPREPQVYTLPPSREEMTKNQVSLTCLVKGFYPSDIAVEWESNGQPENNYKTTPPVLDSDGSFFLYSKLTVDKSRWQQGNVFSCSVMHEALHNHYTQKSLSLSPGKGGGGSGGGGSGGGGSPKKKIQLHAEHALYSALMILNIVKTNSPPAEEKLEDYAFNFELILEEIARLFESGDQKDEAEKAKRMKEWMKRIKTTASEDEQEEMANAIITILESWIFS light: DIQMTQSPSTLSASVGDRVTITCSASSSISYMHWYQQKPGKAPKLLIYTTSNLASGVPARFSGSGSGTEFTLTISSLQPDDFATYYCHQRSTYPLTFGQGTKVEVKRTVAAPSVFIFPPSDEQLKSGTASVVCLLNNFYPREAKVQWKVDNALQSGNSQESVTEQDSKDSTYSLSSTLTLSKADYEKHKVYACEVTHQGLSSPVTKSFNRGEC | – | – | – | – | 131 nM
5 | N terminal anti-CD25 full-length Ab fusion with Neo-2/15_D15S_Q95E (other) heavy: GSPKKKIQLHAEHALYSALMILNIVKTNSPPAEEKLEDYAFNFELILEEIARLFESGDQKDEAEKAKRMKEWMKRIKTTASEDEQEEMANAIITILESWIFSGGGGSGGGGSGGGGSQVQLVQSGAEVKKPGSSVKVSCKASGYTFTSYRMHWVRQAPGQGLEWIGYINPSTGYTEYNQKFKDKATITADESTNTAYMELSSLRSEDTAVYYCARGGGVFDYWGQGTLVTVSSASTKGPSVFPLAPSSKSTSGGTAALGCLVKDYFPEPVTVSWNSGALTSGVHTFPAVLQSSGLYSLSSVVTVPSSSLGTQTYICNVNHKPSNTKVDKKVEPKSCDKTHTCPPCPAPEAAGAPSVFLFPPKPKDTLMISRTPEVTCVVVDVSHEDPEVKFNWYVDGVEVHNAKTKPREEQYNSTYRVVSVLTVLHQDWLNGKEYKCKVSNKALPAPIEKTISKAKGQPREPQVYTLPPSREEMTKNQVSLTCLVKGFYPSDIAVEWESNGQPENNYKTTPPVLDSDGSFFLYSKLTVDKSRWQQGNVFSCSVMHEALHNHYTQKSLSLSPGK light: DIQMTQSPSTLSASVGDRVTITCSASSSISYMHWYQQKPGKAPKLLIYTTSNLASGVPARFSGSGSGTEFTLTISSLQPDDFATYYCHQRSTYPLTFGQGTKVEVKRTVAAPSVFIFPPSDEQLKSGTASVVCLLNNFYPREAKVQWKVDNALQSGNSQESVTEQDSKDSTYSLSSTLTLSKADYEKHKVYACEVTHQGLSSPVTKSFNRGEC | – | – | – | – | 82 nM
6 | N terminal anti-CD25 full-length Ab fusion with Neo-2/15_N40S_I44S_Q95E (TRA comprising SEQ ID NO: 74 and 70) (other, also called proximal fused TRA) heavy: GSPKKKIQLHAEHALYDALMILNIVKTNSPPAEEKLEDYAFSFELSLEEIARLFESGDQKDEAEKAKRMKEWMKRIKTTASEDEQEEMANAIITILESWIFSGGGGSGGGGSGGGGSQVQLVQSGAEVKKPGSSVKVSCKASGYTFTSYRMHWVRQAPGQGLEWIGYINPSTGYTEYNQKFKDKATITADESTNTAYMELSSLRSEDTAVYYCARGGGVFDYWGQGTLVTVSSASTKGPSVFPLAPSSKSTSGGTAALGCLVKDYFPEPVTVSWNSGALTSGVHTFPAVLQSSGLYSLSSVVTVPSSSLGTQTYICNVNHKPSNTKVDKKVEPKSCDKTHTCPPCPAPEAAGAPSVFLFPPKPKDTLMISRTPEVTCVVVDVSHEDPEVKFNWYVDGVEVHNAKTKPREEQYNSTYRVVSVLTVLHQDWLNGKEYKCKVSNKALPAPIEKTISKAKGQPREPQVYTLPPSREEMTKNQVSLTCLVKGFYPSDIAVEWESNGQPENNYKTTPPVLDSDGSFFLYSKLTVDKSRWQQGNVFSCSVMHEALHNHYTQKSLSLSPGK light: DIQMTQSPSTLSASVGDRVTITCSASSSISYMHWYQQKPGKAPKLLIYTTSNLASGVPARFSGSGSGTEFTLTISSLQPDDFATYYCHQRSTYPLTFGQGTKVEVKRTVAAPSVFIFPPSDEQLKSGTASVVCLLNNFYPREAKVQWKVDNALQSGNSQESVTEQDSKDSTYSLSSTLTLSKADYEKHKVYACEVTHQGLSSPVTKSFNRGEC | – | – | – | – | 131 nM

Next, values leading:

Row | Kd [1] | Kd [2] | Kd [3] | Kd [4] | Kd [5] | Binder
7 | 3 nM | 190 nM | – | – | – | Neo-2/15_Q95A (designed binder) PKKKIQLHAEHALYDALMILNIVKTNSPPAEEKLEDYAFNFELILEEIARLFESGDQKDEAEKAKRMKEWMKRIKTTASEDEQEEMANAIITILASWIFS
8 | 60 nM | 44 nM | – | – | – | Neo-2/15_N40A (designed binder) PKKKIQLHAEHALYDALMILNIVKTNSPPAEEKLEDYAFAFELILEEIARLFESGDQKDEAEKAKRMKEWMKRIKTTASEDEQEEMANAIITILQSWIFS
9 | – | – | 0.7 nM | 10 to 20 nM | – | Neo-2/15_Y14A (designed binder) PKKKIQLHAEHALADALMILNIVKTNSPPAEEKLEDYAFNFELILEEIARLFESGDQKDEAEKAKRMKEWMKRIKTTASEDEQEEMANAIITILQSWIFS
10 | 84 nM | 58 nM | – | – | – | Neo-2/15_I44A (designed binder) PKKKIQLHAEHALYDALMILNIVKTNSPPAEEKLEDYAFNFELALEEIARLFESGDQKDEAEKAKRMKEWMKRIKTTASEDEQEEMANAIITILQSWIFS
